Measured values reported in the Human Domainome abundance scans (Beltran et al. 2025).

B1: Histone-lysine N-methyltransferase SETD2, residues 2382 to 2430; numbered along this chain, Q9BYW2 (parent)
chain: SPPKPKTIVLPPNWKTARDPEGKIYYYHVITRQTQWDPPTWESPGDDAS
B2: Unconventional myosin-Ie, residues 1051 to 1108; numbered along this chain, Q12965 (parent)
chain: PQVPQCKALYAYDAQDTDELSFNANDIIDIIKEDPSGWWTGRLRGKQGLFPNNYVTKI

Variants of: B1
Test: abundance fitness (aPCA) (normalised: wild type 0, dead -1); higher = more abundant; growth selection in yeast, the domain comes from the species named
Settings: Homo sapiens

Abundance fitness, by site and new letter:
G45: H -0.73 | M -0.082 | E 0.02 | F 0.019 | S 0.025 | R 0.035 | I 0.125 | A 0.087 | T -0.141 | D -0.061 | Q -0.313 | W 0.026 | C -0.002 | V -0.177 | K 0.006 | P 0.233 | L 0.076 | Y 0.049
D46: V -0.064 | Q -0.358 | Y -0.436 | K -0.166 | I -0.164 | E -0.117 | G -0.119 | R -0.286 | F -0.361 | W -0.358 | C -0.31 | N -0.11 | T -0.292 | H 0.119 | S -0.167 | M -0.297 | L -0.053 | P -0.069
P44: G -0.128 | A -0.115 | T -0.103 | M -0.016 | V -0.263 | N -0.196 | R -0.031 | K -0.128 | W -0.283 | E -0.096 | H 0.036 | C -0.448 | S -0.166 | D -0.108 | F -0.654 | Q -0.067 | I -0.452
P39: T -0.98 | Q -0.659 | H -0.748 | N -0.391 | C -0.812 | V -0.894 | L -0.892 | M -0.908 | I -0.835 | A -0.918 | W -0.987 | R -0.96 | G -1.04 | E -1 | S -0.719
P38: M -0.043 | I -0.111 | R -0.251 | G -0.693 | C -0.221 | W -0.184 | V -0.108 | H -0.039 | K -0.121 | Q -0.255 | N -0.651 | A -0.126 | D -0.836 | T -0.398 | L -0.396 | Y -0.228 | E -0.493 | F -0.143
S43: R -0.11 | A -0.048 | V -0.045 | K 0.145 | F -0.375 | D 0.078 | Q 0.091 | M -0.102 | L -0.064 | N -0.369 | E 0.193 | T -0.061 | G -0.15 | W -0.23 | Y -0.263 | C -0.471 | I -0.095 | H -0.237 | P -0.321
D37: R -0.252 | V 0.013 | Q -0.235 | T 0.117 | W -0.255 | Y -0.314
E42: A -0.148 | G -0.053 | D -0.504 | S 0.011 | T -0.341 | F 0.124 | W -0.172 | N -0.173 | C -0.303 | R -0.184 | Q -0.291 | K -0.074 | V -0.141 | M -0.457 | L -0.412 | P 0.087
S49: M -0.154 | A -0.418 | C -0.467 | R -0.158 | P 0.043 | I -0.088 | F -0.391 | T -0.013 | E -0.279 | Y -0.194 | V -0.62 | Q -0.031 | N -0.696
T40: R -0.019 | N 0.045 | H 0.155 | D -0.342 | Y -0.123 | F -0.251 | E 0.12 | A 0.15 | L -0.071 | G 0.064 | P 0.017 | C 0.151 | W -0.232 | Q 0.277 | V 0.057 | I -0.629 | S 0.062 | M 0
W41: V 0.077 | R 0.091 | A 0.07 | Y 0.338 | Q 0.249 | E 0.166 | G 0.034 | K 0.165 | C 0.04 | M 0.16 | P -0.058 | H 0.117 | F 0.334 | L 0.078 | S 0.195 | I 0.05 | D 0.06
D47: A -0.051 | W -0.288 | V -0.063 | H -0.028 | P -0.2 | S 0.037 | M -0.226 | G -0.002 | R -0.146 | Y -0.023 | K -0.16 | L -0.107 | Q 0.257 | E 0.035 | C -0.206 | F -0.443 | I -0.337 | N -0.241 | T -0.032
A48: K 0.091 | D 0.1 | T 0.147 | H -0.081 | P 0.08 | R 0.107 | I 0.095 | V -0.164 | N 0.153 | E 0.1 | C 0.085 | W -0.07 | Y 0.036 | G -0.014 | F -0.094 | M 0.151 | L -0.077 | S -0.027 | Q -0.153

Variants of: B2
Test: as above
Settings: Homo sapiens

Abundance fitness, by site and new letter:
C6: T -0.768 | H -0.839 | K -1 | V -0.001 | W -0.571 | M -0.172 | S -0.448 | D -0.807 | L -0.866 | R -0.818 | A 0.097 | I -0.67 | P -0.96 | G 0
K7: S -0.167 | N -0.647 | Y -0.074 | L -0.106 | E -0.264 | C -0.028 | F -0.267 | P -0.945 | G -0.943 | T -0.049 | I 0.004 | H -0.122 | V -0.057 | A -0.137 | D -1.02 | Q -0.287 | W -0.26 | M -0.092 | R -0.114
Q2: L -0.106 | G -0.102 | Y -0.373 | K -0.09 | W -0.12 | D 0.01 | M 0.153 | S -0.223 | V -0.173 | H -0.208 | P -0.062 | E -0.193 | R -0.317 | A -0.091 | N 0.068 | I -0.176 | C -0.193 | T -0.155 | F -0.597
Y10: D -0.247 | C -0.14 | F -0.151 | E -0.217 | A -0.186
Q5: R 0.023 | M -0.041 | K -0.075 | L -0.135 | W -0.281 | A -0.245 | T 0.01 | S -0.065 | N -0.062 | I -0.072 | Y -0.007 | P -0.739 | F -0.158 | C -0.269 | E -0.467 | V -0.065
A8: G -0.748 | P -0.732 | K -0.902 | V -0.714 | E -0.674 | M -0.817 | I -1 | R -0.887 | S -0.714 | N -0.853 | W -1.03 | T -0.544 | F -0.619 | C -0.196
L9: I -0.375 | D -0.451 | Y -0.701 | M -0.213 | E -0.149 | T -0.491 | A -0.315 | V -0.148 | K -0.187 | H -0.367 | W -0.588 | N -0.232 | P -0.822 | F -0.743 | R -0.291 | S -0.3 | Q -0.268 | G -0.624 | C -0.222
P1: S 0.006 | A 0.03 | V 0.027 | R -0.362 | C -0.374 | D -0.164 | E -0.144 | K 0.169 | G -0.198 | W -0.237 | Q 0.05 | L 0.072 | T 0.057 | H 0.305
V3: I -0.145
